Laboratory results reported in publication PMC10057847, “Precision engineering of biological function with large-scale measurements and machine learning” (PLOS ONE, 2023).
Residue numbers refer to the chain shown, from its start. Names may count otherwise.

B1: pVER-IPTG-WT(L56M/A194V): LacI variant: L56M A194V (protein, UniProt P03023 1-360, looked up, variant L56M A194V)
Lactose operon repressor: MKPVTLYDVAEYAGVSYQTVSRVVNQASHVSAKTREKVEAAMAELNYIPNRVAQQMAGKQSLLIGVATSSLALHAPSQIVAAIKSRADQLGASVVVSMVERSGVEACKAAVHNLLAQRVSGLIINYPLDDQDAIAVEAACTNVPALFLDVSDQTPINSIIFSHEDGTRLGVEHLVALGHQQIALLAGPLSSVSVRLRLAGWHKYLTRNQIQPIAEREGDWSAMSGFQQTMQMLNEGIVPTAMLVANDQMALGAMRAITESGLRVGADISVVGYDDTEDSSCYIPPLTTIKQDFRLLGQTSVDRLLQLSQGQAVKGNQLLPVSLVKRKTTLAPNTQTASPRALADSLMQLARQVSRLESGQ
B2: pVER-IPTG-WT(L56M/D130E): LacI variant: L56M D130E (protein, UniProt P03023 1-360, looked up, variant L56M D130E)
Lactose operon repressor: B1 Lactose operon repressor with D130E, V194A

Tested on: eYFP under the control of the lactose operator (lacO)
Experiment: in vivo dose-response curves of LacI variants to IPTG measured with flow cytometry (eYFP output), fit to the Hill equation
Format: cell-based, E. coli
Conditions: IPTG dose-response, Hill fit of cytometry data
How it was run: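 IPTG responses were fit to the Hill equation from flow-cytometry eYFP output. Each LacI variant, in E. coli MG1655Δlac with eYFP under lacO on pVER, was taken from stationary phase through two 160-min growths at 37 °C in rich M9 across 11 twofold IPTG dilutions and a no-IPTG control.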

| Molecule | n: the Hill coefficient |
| --- | --- |
| B1 | 1.42 |
| B2 | 1.42 |
